Results taken from patent US20180222961A1 (IMMATICS BIOTECHNOLOGIES, published 2018).

Key:
[1] = molecular target: T1, HLA-A*03:01 (human); assay: UV-exchange b2m ELISA; exchange-yield grade
T1 construct: also called peptide-receptive MHC molecules
Procedure, shortened: (§1)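 Absorbance at 450 nm after HRP anti-β2m detection gives the yield of UV-mediated ligand exchange, quantified against HLA-A*02:01/MLA-001 monomer standards. Only peptides that bind and stabilise peptide-receptive MHC keep the complex intact after UV cleavage of the conditional ligand.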

[2] = molecular target: T2, HLA-B*44:02 (human); assay: UV-exchange b2m ELISA; exchange-yield grade
T2 construct: also called peptide-receptive MHC molecules
Procedure, shortened: as §1

Binder: RMFADDLHNLNK
- peptide exchange yield [1]: 50 to 75%

Binder: RVAELLLLH
- peptide exchange yield [1]: 20 to 50%

Binder: LLQPPPLLAR
- peptide exchange yield [1]: 20 to 50%

Binder: TEVSRTEL
- peptide exchange yield [2]: 20 to 50%

Binder: SFEQVVNELF
- peptide exchange yield [2]: 20 to 50%

Binder: VVHAVFALK
- peptide exchange yield [1]: 50 to 75%

Binder: AEDKRHYSV
- peptide exchange yield [2]: 20 to 50%

Binder: REAGDEFELRY
- peptide exchange yield [2]: 20 to 50%

Binder: ATFERVLLR
- peptide exchange yield [1]: 50 to 75%

Binder: EEAQWVRKY
- peptide exchange yield [2]: 20 to 50%

Binder: KTFPASTVF
- peptide exchange yield [1]: 10 to 20%

Binder: AVAPPTPASK
- peptide exchange yield [1]: 20 to 50%

Binder: NLSSITHER
- peptide exchange yield [1]: 20 to 50%

Binder: YEVARILNL
- peptide exchange yield [2]: 20 to 50%

Binder: EDGRLVIEF
- peptide exchange yield [2]: 10 to 20%

Binder: TEVSRTEAI
- peptide exchange yield [2]: 20 to 50%

Binder: RSLRYYYEK
- peptide exchange yield [1]: 20 to 50%

Binder: VLYGPAGLGK
- peptide exchange yield [1]: 50 to 75%

Binder: KVVDRWNEK
- peptide exchange yield [1]: 20 to 50%

Binder: KEFLFNMY
- peptide exchange yield [2]: 20 to 50%

Binder: RISEYLLEK
- peptide exchange yield [1]: 20 to 50%

Binder: SLKERNPLK
- peptide exchange yield [1]: 20 to 50%

Binder: GMMKGGIRK
- peptide exchange yield [1]: 50 to 75%

Binder: AEFLLRIFL
- peptide exchange yield [2]: 20 to 50%

Binder: TVAPPQGVVK
- peptide exchange yield [1]: 20 to 50%

Binder: KILEEHTNK
- peptide exchange yield [1]: 20 to 50%

Binder: KTYETNLEIKK
- peptide exchange yield [1]: 50 to 75%

Binder: VEQTRAGSLL
- peptide exchange yield [2]: 20 to 50%

Binder: SVSSETTKIKR
- peptide exchange yield [1]: 20 to 50%

Binder: YEKGIMQKV
- peptide exchange yield [2]: 20 to 50%

Binder: KEVDPTSHSY
- peptide exchange yield [2]: 20 to 50%

Binder: RVNAIPFTY
- peptide exchange yield [1]: 50 to 75%

Binder: AEHEGVSVL
- peptide exchange yield [2]: 20 to 50%

Binder: TTALKTTSR
- peptide exchange yield [1]: 10 to 20%

Binder: KVAGERYVYK
- peptide exchange yield [1]: 50 to 75%

Binder: SEDGLPEGIHL
- peptide exchange yield [2]: 20 to 50%

Binder: LEKALQVF
- peptide exchange yield [2]: 20 to 50%

Binder: REGPEEPGL
- peptide exchange yield [2]: 20 to 50%

Binder: GEMEQKQL
- peptide exchange yield [2]: 20 to 50%

Binder: NEAIMHQY
- peptide exchange yield [2]: 20 to 50%

Binder: VVLLGSLFSRK
- peptide exchange yield [1]: 20 to 50%

Binder: VLLGSLFSRK
- peptide exchange yield [1]: 20 to 50%

Binder: REGDTVQLL
- peptide exchange yield [2]: 20 to 50%

Binder: RELANDELIL
- peptide exchange yield [2]: 20 to 50%

Binder: ALEVAHRLK
- peptide exchange yield [1]: 20 to 50%

Binder: STTFPTLTK
- peptide exchange yield [1]: 20 to 50%

Binder: IEHSTQAQDTL
- peptide exchange yield [2]: 20 to 50%

Binder: SVSGVKTTF
- peptide exchange yield [1]: 20 to 50%

Binder: RQPERTILRPR
- peptide exchange yield [1]: 20 to 50%

Binder: KLQPAQTAAK
- peptide exchange yield [1]: 20 to 50%

Binder: AEIEPKADG
- peptide exchange yield [2]: 20 to 50%

Binder: QEAARAAL
- peptide exchange yield [2]: 20 to 50%

Binder: VSKTTGMEF
- peptide exchange yield [1]: 10 to 20%

Binder: KSLIKSWKK
- peptide exchange yield [1]: 20 to 50%

Binder: QSMYYPLQLK
- peptide exchange yield [1]: 20 to 50%

Binder: GTVNPTVGK
- peptide exchange yield [1]: 20 to 50%

Binder: IVQEPTEEK
- peptide exchange yield [1]: 20 to 50%

Binder: RAKELEATF
- peptide exchange yield [1]: 10 to 20%

Binder: MEHPGKLLF
- binding result [2]: binds

Binder: AEATARLNVF
- binding result [2]: binds

Binder: AVRKPIVLK
- peptide exchange yield [1]: 50 to 75%

Binder: LEAQQEAL
- peptide exchange yield [2]: 20 to 50%

Binder: RRIHTGEKPYK
- peptide exchange yield [1]: 20 to 50%

Binder: GTSPPSVEK
- peptide exchange yield [1]: 20 to 50%

Binder: GEGPKTSW
- peptide exchange yield [2]: 20 to 50%

Binder: NEIWTHSY
- peptide exchange yield [2]: 10 to 20%

Binder: SEITRIEM
- peptide exchange yield [2]: 20 to 50%

Binder: RMASPVNVK
- peptide exchange yield [1]: > 75%

Binder: GEIEIHLL
- peptide exchange yield [2]: 10 to 20%

Binder: KESIPRWYY
- peptide exchange yield [2]: 20 to 50%

Binder: REAGDEFEL
- peptide exchange yield [2]: 20 to 50%

Binder: SMYYPLQLK
- peptide exchange yield [1]: 50 to 75%

Binder: AERQPGAASL
- peptide exchange yield [2]: 20 to 50%
